Measured values taken from patent US20200270325A1 (Merck Sharp & Dohme, published 2020).
Numbered stars: 1 amine (or outer) side, 2 acyl side, 3 side chain; on linkers, the order of the positions; unused ones are H or OH. Square brackets hold non-standard residues; d marks the D form. Side chains are listed from the residue outwards. Ends that are not written are not given here. * marks the point of attachment. Phe(4-CH2NH2) = NCc1ccc(C[C@H](N)C(=O)O)cc1; C18 diacid = O=C(O)CCCCCCCCCCCCCCCCC(=O)*; C16 diacid = O=C(O)CCCCCCCCCCCCCCC(=O)*; γGlu = O=C(O)[C@H](CCC(=O)[*:2])N[*:1]; Met(O2) = CS(=O)(=O)CC[C@H](N)C(=O)O; αMeD = C[C@](N)(CC(=O)O)C(=O)O; AEEA = NCCOCCOCC(=O)O; Aib = CC(C)(N)C(=O)O

Columns and labels:
[1] = biological target: human Glucagon receptor (GCGR) (human, UniProt P47871 26-477); assay: cell-based or functional assay
Chain of human Glucagon receptor (GCGR) (P47871 26-477): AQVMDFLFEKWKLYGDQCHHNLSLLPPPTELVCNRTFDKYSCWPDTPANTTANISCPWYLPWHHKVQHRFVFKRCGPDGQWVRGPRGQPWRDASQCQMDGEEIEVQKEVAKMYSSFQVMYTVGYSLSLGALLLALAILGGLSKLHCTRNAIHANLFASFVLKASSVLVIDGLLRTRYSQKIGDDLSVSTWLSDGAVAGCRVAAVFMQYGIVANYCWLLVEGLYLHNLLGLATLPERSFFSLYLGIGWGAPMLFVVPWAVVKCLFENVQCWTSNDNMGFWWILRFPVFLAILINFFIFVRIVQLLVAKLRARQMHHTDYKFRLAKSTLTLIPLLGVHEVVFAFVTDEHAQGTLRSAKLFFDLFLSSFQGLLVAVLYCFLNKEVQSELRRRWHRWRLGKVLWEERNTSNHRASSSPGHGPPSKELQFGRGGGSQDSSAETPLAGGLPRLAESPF

[2] = biological target: human GLP-1 receptor (GLP1R) (human, UniProt P43220 24-463); assay: cell-based or functional assay

B1: TP675 (peptide)
peptide: H[Aib]QGTFTSDYSKYLD[Aib]RAAQDFVK([AEEA-AEEA-γGlu-C18 diacid])WL[Met(O2)]ET-NH2
modifications: N-terminus assumed
SMILES: CC(C)C[C@H](NC(=O)[C@H](Cc1c[nH]c2ccccc12)NC(=O)[C@H](CCCCNC(=O)COCCOCCNC(=O)COCCOCCNC(=O)CC[C@H](NC(=O)CCCCCCCCCCCCCCCCC(=O)O)C(=O)O)NC(=O)[C@@H](NC(=O)[C@H](Cc1ccccc1)NC(=O)[C@H](CC(=O)O)NC(=O)[C@H](CCC(N)=O)NC(=O)[C@H](C)NC(=O)[C@H](C)NC(=O)[C@H](CCCNC(=N)N)NC(=O)C(C)(C)NC(=O)[C@H](CC(=O)O)NC(=O)[C@H](CC(C)C)NC(=O)[C@H](Cc1ccc(O)cc1)NC(=O)[C@H](CCCCN)NC(=O)[C@H](CO)NC(=O)[C@H](Cc1ccc(O)cc1)NC(=O)[C@H](CC(=O)O)NC(=O)[C@H](CO)NC(=O)[C@@H](NC(=O)[C@H](Cc1ccccc1)NC(=O)[C@@H](NC(=O)CNC(=O)[C@H](CCC(N)=O)NC(=O)C(C)(C)NC(=O)[C@@H](N)Cc1c[nH]cn1)[C@@H](C)O)[C@@H](C)O)C(C)C)C(=O)N[C@@H](CCS(C)(=O)=O)C(=O)N[C@@H](CCC(=O)O)C(=O)N[C@H](C(N)=O)[C@@H](C)O
GCGR EC50 human [1]: 0.3 nM
GLP1R EC50 human [2]: 0.71 nM

B2: TP666 (peptide)
peptide: H[Aib]QGTFTSDYSKYLD[Aib]RAAQFVQK([AEEA-AEEA-γGlu-C16 diacid])WLLATK-{γGlu-NH2}
GCGR EC50 human [1]: > 19.8 nM
GLP1R EC50 human [2]: > 19.8 nM

B3: TP676 (peptide)
peptide: H[Aib]QGTFTSDYSKYLDARAAK([AEEA-AEEA-AEEA-γGlu-C18 diacid])DFVQWL[Met(O2)]DT-NH2
modifications: N-terminus assumed
SMILES: CC(C)C[C@H](NC(=O)[C@H](Cc1ccc(O)cc1)NC(=O)[C@H](CCCCN)NC(=O)[C@H](CO)NC(=O)[C@H](Cc1ccc(O)cc1)NC(=O)[C@H](CC(=O)O)NC(=O)[C@H](CO)NC(=O)[C@@H](NC(=O)[C@H](Cc1ccccc1)NC(=O)[C@@H](NC(=O)CNC(=O)[C@H](CCC(N)=O)NC(=O)C(C)(C)NC(=O)[C@@H](N)Cc1c[nH]cn1)[C@@H](C)O)[C@@H](C)O)C(=O)N[C@@H](CC(=O)O)C(=O)N[C@@H](C)C(=O)N[C@@H](CCCNC(=N)N)C(=O)N[C@@H](C)C(=O)N[C@@H](C)C(=O)N[C@@H](CCCCNC(=O)COCCOCCNC(=O)COCCOCCNC(=O)COCCOCCNC(=O)CC[C@H](NC(=O)CCCCCCCCCCCCCCCCC(=O)O)C(=O)O)C(=O)N[C@@H](CC(=O)O)C(=O)N[C@@H](Cc1ccccc1)C(=O)N[C@H](C(=O)N[C@@H](CCC(N)=O)C(=O)N[C@@H](Cc1c[nH]c2ccccc12)C(=O)N[C@@H](CC(C)C)C(=O)N[C@@H](CCS(C)(=O)=O)C(=O)N[C@@H](CC(=O)O)C(=O)N[C@H](C(N)=O)[C@@H](C)O)C(C)C
GCGR EC50 human [1]: 0.82 nM
GLP1R EC50 human [2]: 0.26 nM

B4: TP667 (peptide)
peptide: H[Aib]QGTFTSDYSKYLD[Aib]RAAQFVQ[Phe(4-CH2NH2)]([AEEA-AEEA-γGlu-C16 diacid])WLLATK-{γGlu-NH2}
GCGR EC50 human [1]: > 19.8 nM
GLP1R EC50 human [2]: > 19.8 nM

B5: TP582 (peptide)
peptide: H[Aib]QGTFTSD[Phe(4-CH2NH2)]([AEEA-AEEA-γGlu-C20‑OH])SKYLD[Aib]RAAQDFVQWLLATK-{γGlu-NH2}
GCGR EC50 human [1]: 4.95 nM
GLP1R EC50 human [2]: 2.57 nM

B6: TP677 (peptide)
peptide: H[Aib]QGTFTSDYSKYLDARAAK([AEEA-AEEA-AEEA-γGlu-C18 diacid])DFVQWL[Met(O2)][αMeD]T-NH2
modifications: N-terminus assumed
SMILES: CC(C)C[C@H](NC(=O)[C@H](Cc1ccc(O)cc1)NC(=O)[C@H](CCCCN)NC(=O)[C@H](CO)NC(=O)[C@H](Cc1ccc(O)cc1)NC(=O)[C@H](CC(=O)O)NC(=O)[C@H](CO)NC(=O)[C@@H](NC(=O)[C@H](Cc1ccccc1)NC(=O)[C@@H](NC(=O)CNC(=O)[C@H](CCC(N)=O)NC(=O)C(C)(C)NC(=O)[C@@H](N)Cc1c[nH]cn1)[C@@H](C)O)[C@@H](C)O)C(=O)N[C@@H](CC(=O)O)C(=O)N[C@@H](C)C(=O)N[C@@H](CCCNC(=N)N)C(=O)N[C@@H](C)C(=O)N[C@@H](C)C(=O)N[C@@H](CCCCNC(=O)COCCOCCNC(=O)COCCOCCNC(=O)COCCOCCNC(=O)CC[C@H](NC(=O)CCCCCCCCCCCCCCCCC(=O)O)C(=O)O)C(=O)N[C@@H](CC(=O)O)C(=O)N[C@@H](Cc1ccccc1)C(=O)N[C@H](C(=O)N[C@@H](CCC(N)=O)C(=O)N[C@@H](Cc1c[nH]c2ccccc12)C(=O)N[C@@H](CC(C)C)C(=O)N[C@@H](CCS(C)(=O)=O)C(=O)N[C@@](C)(CC(=O)O)C(=O)N[C@H](C(N)=O)[C@@H](C)O)C(C)C
GCGR EC50 human [1]: 1.42 nM
GLP1R EC50 human [2]: 0.76 nM

B7: TP665 (peptide)
peptide: H[Aib]QGTFTSDYSKYLD[Aib]RAAQ[Phe(4-CH2NH2)]([AEEA-AEEA-γGlu-C16 diacid])FVQWLLATK-{γGlu-NH2}
GCGR EC50 human [1]: 0.79 nM
GLP1R EC50 human [2]: 1.6 nM

B8: TP673 (peptide)
peptide: H[Aib]QGTFTSDYSKYLD[Aib]RAAK([AEEA-AEEA-γGlu-C18 diacid])DFVQWL[Met(O2)]ET-NH2
modifications: N-terminus assumed
SMILES: CC(C)C[C@H](NC(=O)[C@H](Cc1c[nH]c2ccccc12)NC(=O)[C@H](CCC(N)=O)NC(=O)[C@@H](NC(=O)[C@H](Cc1ccccc1)NC(=O)[C@H](CC(=O)O)NC(=O)[C@H](CCCCNC(=O)COCCOCCNC(=O)COCCOCCNC(=O)CC[C@H](NC(=O)CCCCCCCCCCCCCCCCC(=O)O)C(=O)O)NC(=O)[C@H](C)NC(=O)[C@H](C)NC(=O)[C@H](CCCNC(=N)N)NC(=O)C(C)(C)NC(=O)[C@H](CC(=O)O)NC(=O)[C@H](CC(C)C)NC(=O)[C@H](Cc1ccc(O)cc1)NC(=O)[C@H](CCCCN)NC(=O)[C@H](CO)NC(=O)[C@H](Cc1ccc(O)cc1)NC(=O)[C@H](CC(=O)O)NC(=O)[C@H](CO)NC(=O)[C@@H](NC(=O)[C@H](Cc1ccccc1)NC(=O)[C@@H](NC(=O)CNC(=O)[C@H](CCC(N)=O)NC(=O)C(C)(C)NC(=O)[C@@H](N)Cc1c[nH]cn1)[C@@H](C)O)[C@@H](C)O)C(C)C)C(=O)N[C@@H](CCS(C)(=O)=O)C(=O)N[C@@H](CCC(=O)O)C(=O)N[C@H](C(N)=O)[C@@H](C)O
GCGR EC50 human [1]: 0.22 nM
GLP1R EC50 human [2]: 0.67 nM

B9: TP674 (peptide)
peptide: H[Aib]QGTFTSDYSKYLEARAAK([AEEA-AEEA-γGlu-C18 diacid])DFVQWL[Met(O2)]DT-NH2
modifications: N-terminus assumed
SMILES: CC(C)C[C@H](NC(=O)[C@H](Cc1ccc(O)cc1)NC(=O)[C@H](CCCCN)NC(=O)[C@H](CO)NC(=O)[C@H](Cc1ccc(O)cc1)NC(=O)[C@H](CC(=O)O)NC(=O)[C@H](CO)NC(=O)[C@@H](NC(=O)[C@H](Cc1ccccc1)NC(=O)[C@@H](NC(=O)CNC(=O)[C@H](CCC(N)=O)NC(=O)C(C)(C)NC(=O)[C@@H](N)Cc1c[nH]cn1)[C@@H](C)O)[C@@H](C)O)C(=O)N[C@@H](CCC(=O)O)C(=O)N[C@@H](C)C(=O)N[C@@H](CCCNC(=N)N)C(=O)N[C@@H](C)C(=O)N[C@@H](C)C(=O)N[C@@H](CCCCNC(=O)COCCOCCNC(=O)COCCOCCNC(=O)CC[C@H](NC(=O)CCCCCCCCCCCCCCCCC(=O)O)C(=O)O)C(=O)N[C@@H](CC(=O)O)C(=O)N[C@@H](Cc1ccccc1)C(=O)N[C@H](C(=O)N[C@@H](CCC(N)=O)C(=O)N[C@@H](Cc1c[nH]c2ccccc12)C(=O)N[C@@H](CC(C)C)C(=O)N[C@@H](CCS(C)(=O)=O)C(=O)N[C@@H](CC(=O)O)C(=O)N[C@H](C(N)=O)[C@@H](C)O)C(C)C
GCGR EC50 human [1]: 1.08 nM
GLP1R EC50 human [2]: 0.45 nM

B10: TP672 (peptide)
peptide: H[Aib]QGTFTSDYSKYLDARAAK([AEEA-AEEA-γGlu-C18 diacid])DFVQWL[Met(O2)]ET-NH2
modifications: N-terminus assumed
SMILES: CC(C)C[C@H](NC(=O)[C@H](Cc1ccc(O)cc1)NC(=O)[C@H](CCCCN)NC(=O)[C@H](CO)NC(=O)[C@H](Cc1ccc(O)cc1)NC(=O)[C@H](CC(=O)O)NC(=O)[C@H](CO)NC(=O)[C@@H](NC(=O)[C@H](Cc1ccccc1)NC(=O)[C@@H](NC(=O)CNC(=O)[C@H](CCC(N)=O)NC(=O)C(C)(C)NC(=O)[C@@H](N)Cc1c[nH]cn1)[C@@H](C)O)[C@@H](C)O)C(=O)N[C@@H](CC(=O)O)C(=O)N[C@@H](C)C(=O)N[C@@H](CCCNC(=N)N)C(=O)N[C@@H](C)C(=O)N[C@@H](C)C(=O)N[C@@H](CCCCNC(=O)COCCOCCNC(=O)COCCOCCNC(=O)CC[C@H](NC(=O)CCCCCCCCCCCCCCCCC(=O)O)C(=O)O)C(=O)N[C@@H](CC(=O)O)C(=O)N[C@@H](Cc1ccccc1)C(=O)N[C@H](C(=O)N[C@@H](CCC(N)=O)C(=O)N[C@@H](Cc1c[nH]c2ccccc12)C(=O)N[C@@H](CC(C)C)C(=O)N[C@@H](CCS(C)(=O)=O)C(=O)N[C@@H](CCC(=O)O)C(=O)N[C@H](C(N)=O)[C@@H](C)O)C(C)C
GCGR EC50 human [1]: 0.35 nM
GLP1R EC50 human [2]: 0.51 nM
